Measured values reported in publication PMC9175492.

Assays:
[1] = target: Kelch domain of Kelch-like ECH-associated protein 1 (Keap1); assay: fluorescence polarisation
[2] = target: LgBit, an 18-kDa subunit of NanoLuc; assay: split reporter

IC50 [1] [nM] | fold induction of luminescence at 10 μM [2] [fold] | Binder
14 |  | GQLDPETGEFL (here or on the partner: cyclic peptide) [cyclic peptidyl inhibitor P1, Cyclo(…)]
 | 20 | VSGWRLFKKIS [HiBit, an 11-residue peptide derived from NanoLuc]
